We go through one molecule from PMC5667929, “Combinatorial action of Grainyhead, Extradenticle and Notch in regulating Hox mediated apoptosis in Drosophila larval CNS” (PLoS Genetics, 2017).

The assay addresses T1, His tagged Grh (551-1333 aa) (Drosophila, UniProt P13002 551-1333).
T1 construct: Grainyhead (Grh), Drosophila transcription factor, residues 551-1333; also called His-Grh; Grainyhead; source: bacterial culture (induced two hours with 0.5mM IPTG at 18°C), in lysate for the pull-down
The assay can be described thus: native gel or EMSA; proteins (100 or 200 ng) mixed with DNA oligos of motifs from the 1Kb F3B3 enhancer; complexes seen on DNA only; 20 ul, room temperature, 30 minutes; binding buffer with Tris pH 7.5, KCl, MgCl2, EDTA, DTT, BSA, glycerol, polydIdC. The following applies: both partners purified.

T1 sequence (P13002 551-1333): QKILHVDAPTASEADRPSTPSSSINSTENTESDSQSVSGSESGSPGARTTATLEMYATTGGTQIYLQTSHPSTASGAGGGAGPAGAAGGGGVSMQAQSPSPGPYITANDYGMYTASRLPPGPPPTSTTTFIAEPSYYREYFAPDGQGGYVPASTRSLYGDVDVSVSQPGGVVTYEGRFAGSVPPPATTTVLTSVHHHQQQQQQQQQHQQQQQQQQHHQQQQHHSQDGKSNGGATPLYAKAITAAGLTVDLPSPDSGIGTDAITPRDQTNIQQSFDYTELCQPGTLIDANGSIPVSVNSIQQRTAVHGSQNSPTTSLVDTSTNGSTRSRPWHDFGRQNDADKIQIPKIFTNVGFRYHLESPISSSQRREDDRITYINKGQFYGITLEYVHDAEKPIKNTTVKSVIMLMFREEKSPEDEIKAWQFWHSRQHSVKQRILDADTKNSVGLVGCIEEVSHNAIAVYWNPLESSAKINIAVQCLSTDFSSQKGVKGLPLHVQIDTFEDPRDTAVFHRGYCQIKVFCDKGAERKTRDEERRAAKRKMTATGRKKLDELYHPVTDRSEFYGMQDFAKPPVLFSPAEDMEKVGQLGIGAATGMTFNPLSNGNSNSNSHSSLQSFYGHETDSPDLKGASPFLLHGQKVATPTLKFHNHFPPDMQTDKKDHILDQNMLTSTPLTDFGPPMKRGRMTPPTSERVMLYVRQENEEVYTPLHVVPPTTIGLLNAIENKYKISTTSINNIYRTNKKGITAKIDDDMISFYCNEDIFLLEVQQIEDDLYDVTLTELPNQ

B1: 6X His-tagged AbdA (residues 261-590) (domain or fragment)
chain: not shown
notes: Abdominal-A (AbdA), Drosophila Hox protein, residues 261-590; also called Hox
For B1, the binding result is “binds”.
